Source: patent US7045613B2, “IKK-αproteins, nucleic acids and methods” (Amgen, Inc., priority 1997, dated 2006)
Values belong to the molecule of their own block, whether it stands above or below them.

Experiments:
[1] = system: NF-κB-dependent reporter gene; assay: NF-κB-dependent reporter gene assay, 293 cells; assay type: cell-based, human; conditions: overexpression in 293 cells
Text: (§1) To investigate a possible role for IKK-α in NF-κB activation, we examined if transient overexpression of IKK-α might activate an NF-κB-dependent reporter gene. An E-selectin-luciferase reporter construct (Schindler and Baichwal, 1994) and a IKK-α expression vector were cotransfected into HeLa cells. IKK-α expression activated the reporter gene in a dose-dependent manner, with a maximal induction of luciferase activity of about 6 to 7-fold compared to vector control. Similar results were obtained in 293 cells, where IKK-α overexpression induced reporter gene activity approximately 4-fold. […] Thus, IKK-α induces NF-κB activation when overexpressed.
Overexpression of IKK-α(307-745) blocked TNF- and IL-1-induced reporter gene activation similar to overexpression of NIK(624-947). IKK-α(307-745) was also found to inhibited NF-κB-dependent reporter gene activity elicited by overexpression of TRAF2, TRAF6 and NIK.

[2] = system: NF-κB-dependent reporter gene; assay: E-selectin-luciferase NF-κB-dependent reporter gene assay, HeLa cells; assay type: cell-based, human; conditions: transient overexpression in HeLa cells, compared to vector control
Text: as §1

NIK = molecular target: T1, NIK (Homo sapiens, UniProt Q99558); assay: Coimmunoprecipitation with Myc-tagged NIK in 293 cells; assay type: binding; conditions: Flag-tagged protein coexpressed with Myc-NIK, anti-Flag immunoprecipitation
T1 construct: expressed in transfected cells; host or cells: 293 human embryonic kidney cells
T1 sequence (Q99558 whole entry): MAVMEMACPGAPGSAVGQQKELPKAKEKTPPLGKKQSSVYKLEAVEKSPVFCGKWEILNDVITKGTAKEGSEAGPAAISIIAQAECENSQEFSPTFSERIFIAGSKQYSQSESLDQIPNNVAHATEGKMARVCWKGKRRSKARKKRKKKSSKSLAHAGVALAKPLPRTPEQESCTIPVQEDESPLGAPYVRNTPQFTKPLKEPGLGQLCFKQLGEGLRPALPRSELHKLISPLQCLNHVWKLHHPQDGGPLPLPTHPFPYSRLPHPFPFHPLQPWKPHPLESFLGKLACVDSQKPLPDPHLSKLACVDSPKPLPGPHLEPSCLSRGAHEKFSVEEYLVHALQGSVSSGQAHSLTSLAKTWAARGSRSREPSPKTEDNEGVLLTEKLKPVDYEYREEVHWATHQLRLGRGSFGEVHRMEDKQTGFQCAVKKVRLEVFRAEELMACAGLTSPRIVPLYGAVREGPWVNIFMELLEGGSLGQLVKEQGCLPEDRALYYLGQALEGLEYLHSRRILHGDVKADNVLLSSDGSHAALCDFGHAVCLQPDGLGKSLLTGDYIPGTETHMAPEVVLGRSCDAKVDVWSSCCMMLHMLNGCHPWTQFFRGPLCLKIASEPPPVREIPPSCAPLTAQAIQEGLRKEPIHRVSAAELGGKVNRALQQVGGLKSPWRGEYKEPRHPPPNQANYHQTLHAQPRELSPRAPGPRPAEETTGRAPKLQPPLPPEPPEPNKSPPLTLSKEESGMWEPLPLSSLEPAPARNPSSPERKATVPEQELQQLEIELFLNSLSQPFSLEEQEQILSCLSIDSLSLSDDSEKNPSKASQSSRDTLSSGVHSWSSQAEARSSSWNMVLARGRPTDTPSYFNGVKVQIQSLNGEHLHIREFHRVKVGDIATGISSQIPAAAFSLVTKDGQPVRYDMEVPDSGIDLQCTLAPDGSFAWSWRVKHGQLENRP
Text: (§2) The interaction of IKK-α with NIK was confirmed in mammalian cell coimmunoprecipitation assays. Human IKK-α containing an N-terminal Flag epitope tag was transiently coexpressed in 293 human embryonic kidney cells with Myc epitope-tagged NIK or HA epitope-tagged TRAF proteins. Cell lysates were immunoprecipitated using a monoclonal antibody against the Flag epitope, and coprecipitating NIK or TRAF proteins were detected by immunoblot analysis with an anti-Myc or anti-HA monoclonal antibodies.

TRAF2 = assay: Coimmunoprecipitation with HA-tagged TRAF2 in 293 cells; assay type: binding, human
Text: as §2

TRAF3 = molecular target: T2, TRAF3 (Homo sapiens, UniProt Q13114); assay: Coimmunoprecipitation with HA-tagged TRAF3 in 293 cells; assay type: binding; conditions: Flag-tagged protein coexpressed with HA-TRAF3
T2 construct: expressed in transfected cells; host or cells: 293 human embryonic kidney cells
T2 sequence (Q13114 1-568): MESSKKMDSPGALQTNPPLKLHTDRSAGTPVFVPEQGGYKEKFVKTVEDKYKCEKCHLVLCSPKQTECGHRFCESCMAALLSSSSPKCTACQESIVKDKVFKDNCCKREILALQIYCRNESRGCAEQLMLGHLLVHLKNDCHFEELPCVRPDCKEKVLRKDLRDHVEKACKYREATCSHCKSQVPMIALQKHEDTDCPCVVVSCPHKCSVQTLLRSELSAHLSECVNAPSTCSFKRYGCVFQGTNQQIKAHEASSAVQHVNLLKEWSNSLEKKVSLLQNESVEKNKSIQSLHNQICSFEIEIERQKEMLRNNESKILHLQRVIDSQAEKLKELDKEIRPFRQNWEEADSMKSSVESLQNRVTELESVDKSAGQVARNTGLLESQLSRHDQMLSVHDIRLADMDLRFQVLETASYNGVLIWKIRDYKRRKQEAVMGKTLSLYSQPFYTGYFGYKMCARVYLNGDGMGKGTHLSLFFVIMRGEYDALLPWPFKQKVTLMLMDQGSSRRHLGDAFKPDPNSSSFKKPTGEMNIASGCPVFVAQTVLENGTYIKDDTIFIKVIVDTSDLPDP
Text: as §2

B1: NIK(624-947): kinase-inactive mutant of NIK comprising its TRAF2-interacting C-terminal domain (protein, UniProt Q99558 624-947, looked up, fragment)
chain: PLTAQAIQEGLRKEPIHRVSAAELGGKVNRALQQVGGLKSPWRGEYKEPRHPPPNQANYHQTLHAQPRELSPRAPGPRPAEETTGRAPKLQPPLPPEPPEPNKSPPLTLSKEESGMWEPLPLSSLEPAPARNPSSPERKATVPEQELQQLEIELFLNSLSQPFSLEEQEQILSCLSIDSLSLSDDSEKNPSKASQSSRDTLSSGVHSWSSQAEARSSSWNMVLARGRPTDTPSYFNGVKVQIQSLNGEHLHIREFHRVKVGDIATGISSQIPAAAFSLVTKDGQPVRYDMEVPDSGIDLQCTLAPDGSFAWSWRVKHGQLENRP
TNF- and IL-1-induced reporter gene activation [1]: blocked

coprecipitation / association with NIK (NIK): able to coprecipitate NIK
association with TRAF3 (TRAF3): failed to associate
B2: IKK-α: novel human IκB kinase, full conceptual translate SEQ ID NO:4 (protein)
chain: MERPPGLRPGAGGPWEMRERLGTGGFGNVCLYQHRELDLKIAIKSCRLELSTKNRERWCHEIQIMKKLNHANVVKACDVPEELNILIHDVPLLAMEYCSGGDLRKLLNKPENCCGLKESQILSLLSDIGSGIRYLHENKIIHRDLKPENIVLQDVGGKIIHKIIDLGYAKDVDQGSLCTSFVGTLQYLAPELFENKPYTATVDYWSFGTMVFECIAGYRPFLHHLQPFTWHEKIKKKDPKCIFACEEMSGEVRFSSHLPQPNSLCSLIVEPMENWLQLMLNWDPQQRGGPVDLTLKQPRCFVLMDHILNLKIVHILNMTSAKIISFLLPPDESLHSLQSRIERETGINTGSQELLSETGISLDPRKPASQCVLDGVRGCDSYMVYLFDKSKTVYEGPFASRSLSDCVNYIVQDSKIQLPIIQLRKVWAEAVHYVSGLKEDYSRLFQGQRAAMLSLLRYNANLTKMKNTLISASQQLKAKLEFFHKSIQLDLERYSEQMTYGISSEKMLKAWKEMEEKAIHYAEVGVIGYLEDQIMSLHAEIMELQKSPYGRRQGDLMESLEQRAIDLYKQLKHRPSDHSYSDSTEMVKIIVHTVQSQDRVLKELFGHLSKLLGCKQKIIDLLPKVEVALSNIKEADNTVMFMQGKRQKEIWHLLKIACTQSSARSLVGSSLEGAVTPQTSAWLPPTSAEHDHSLSCVVTPQDGETSAQMIEENLNCLGHLSTIIHEANEEQGNSMMNLDWSWLTE
maximal induction of luciferase activity [2]: 6 to 7 fold
induced reporter gene activity [1]: approximately 4 fold
association with TRAF2 (TRAF2; Flag-tagged protein coexpressed with HA-TRAF2, without NIK): failed to associate
coprecipitation of TRAF2 when NIK coexpressed (TRAF2; NIK coexpressed with IKK-α and TRAF2): strong coprecipitation

coprecipitation / association with NIK (NIK): able to associate with NIK
B3: IKK-α(307-745): deletion mutant IKK-α protein lacking most of the N-terminal kinase domain; kinase-inactive (protein)
chain: ILNLKIVHILNMTSAKIISFLLPPDESLHSLQSRIERETGINTGSQELLSETGISLDPRKPASQCVLDGVRGCDSYMVYLFDKSKTVYEGPFASRSLSDCVNYIVQDSKIQLPIIQLRKVWAEAVHYVSGLKEDYSRLFQGQRAAMLSLLRYNANLTKMKNTLISASQQLKAKLEFFHKSIQLDLERYSEQMTYGISSEKMLKAWKEMEEKAIHYAEVGVIGYLEDQIMSLHAEIMELQKSPYGRRQGDLMESLEQRAIDLYKQLKHRPSDHSYSDSTEMVKIIVHTVQSQDRVLKELFGHLSKLLGCKQKIIDLLPKVEVALSNIKEADNTVMFMQGKRQKEIWHLLKIACTQSSARSLVGSSLEGAVTPQTSAWLPPTSAEHDHSLSCVVTPQDGETSAQMIEENLNCLGHLSTIIHEANEEQGNSMMNLDWSWLTE
NF-κB-dependent reporter gene activity elicited by overexpression of TRAF2, TRAF6 and NIK [1]: inhibited
TNF- and IL-1-induced reporter gene activation [1]: blocked
